Data reported in patent US20140087995A1 (published 2014).
Numbered stars: 1 amine (or outer) side, 2 acyl side, 3 side chain; on linkers, the order of the positions; unused ones are H or OH. Bridge positions count the residues as written; N and C are the ends. Side chains are listed from the residue outwards. Ends that are not written are not given here. * marks the point of attachment. C20 diacid = O=C(O)CCCCCCCCCCCCCCCCCCC(=O)*; γGlu = O=C(O)[C@H](CCC(=O)[*:2])N[*:1]; AEEA = NCCOCCOCC(=O)O

T1: human calcitonin receptor (human, UniProt P30988 25-474)
T1 construct: whole, on cells; also called hCTR; hCT
T1 sequence (looked up): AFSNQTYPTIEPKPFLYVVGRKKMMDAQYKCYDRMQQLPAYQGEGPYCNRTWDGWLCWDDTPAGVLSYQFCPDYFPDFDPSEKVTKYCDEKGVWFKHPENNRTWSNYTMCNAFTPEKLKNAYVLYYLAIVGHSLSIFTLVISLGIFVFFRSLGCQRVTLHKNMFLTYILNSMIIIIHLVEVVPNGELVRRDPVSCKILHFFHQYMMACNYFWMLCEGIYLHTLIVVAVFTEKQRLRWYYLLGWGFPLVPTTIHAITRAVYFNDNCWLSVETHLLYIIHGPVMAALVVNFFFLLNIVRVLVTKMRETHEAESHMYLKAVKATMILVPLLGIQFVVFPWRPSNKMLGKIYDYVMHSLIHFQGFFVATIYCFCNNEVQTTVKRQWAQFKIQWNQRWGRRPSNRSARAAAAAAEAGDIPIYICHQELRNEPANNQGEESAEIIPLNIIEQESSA

B1: N^ε1-[2-[2-[2-[[(4S)-4-carboxy-4-(19-carboxynonadecanoylamino)butanoyl]amino]ethoxy]ethoxy]acetyl]-[Arg17,Pro21,Pro27,Pro29,Pro34]-h-amylin (peptide)
peptide: K([AEEA-γGlu-C20 diacid])CNTATCATQRLANFLRHSSPNFGAIPSPTNVGPNTY-NH2
modifications: disulfide 2-7; N-terminus assumed
SMILES: CC[C@H](C)[C@H](NC(=O)[C@H](C)NC(=O)CNC(=O)[C@H](Cc1ccccc1)NC(=O)[C@H](CC(N)=O)NC(=O)[C@@H]1CCCN1C(=O)[C@H](CO)NC(=O)[C@H](CO)NC(=O)[C@H](Cc1c[nH]cn1)NC(=O)[C@H](CCCNC(=N)N)NC(=O)[C@H](CC(C)C)NC(=O)[C@H](Cc1ccccc1)NC(=O)[C@H](CC(N)=O)NC(=O)[C@H](C)NC(=O)[C@H](CC(C)C)NC(=O)[C@H](CCCNC(=N)N)NC(=O)[C@H](CCC(N)=O)NC(=O)[C@@H](NC(=O)[C@H](C)NC(=O)[C@@H]1CSSC[C@H](NC(=O)[C@@H](N)CCCCNC(=O)COCCOCCNC(=O)CC[C@H](NC(=O)CCCCCCCCCCCCCCCCCCC(=O)O)C(=O)O)C(=O)N[C@@H](CC(N)=O)C(=O)N[C@@H]([C@@H](C)O)C(=O)N[C@@H](C)C(=O)N[C@@H]([C@@H](C)O)C(=O)N1)[C@@H](C)O)C(=O)N1CCC[C@H]1C(=O)N[C@@H](CO)C(=O)N1CCC[C@H]1C(=O)N[C@H](C(=O)N[C@@H](CC(N)=O)C(=O)N[C@H](C(=O)NCC(=O)N1CCC[C@H]1C(=O)N[C@@H](CC(N)=O)C(=O)N[C@H](C(=O)N[C@@H](Cc1ccc(O)cc1)C(N)=O)[C@@H](C)O)C(C)C)[C@@H](C)O
notes: also called compound 56
B2: N^ε1-[2-[2-[2-[[(4S)-4-carboxy-4-(19-carboxynonadecanoylamino)butanoyl]amino]ethoxy]ethoxy]acetyl]-[Arg17,Pro21,Pro27,Pro31,His35]-h-amylin (peptide)
peptide: K([AEEA-γGlu-C20 diacid])CNTATCATQRLANFLRHSSPNFGAIPSSTPVGSHTY-NH2
modifications: disulfide 2-7; N-terminus assumed
SMILES: CC[C@H](C)[C@H](NC(=O)[C@H](C)NC(=O)CNC(=O)[C@H](Cc1ccccc1)NC(=O)[C@H](CC(N)=O)NC(=O)[C@@H]1CCCN1C(=O)[C@H](CO)NC(=O)[C@H](CO)NC(=O)[C@H](Cc1c[nH]cn1)NC(=O)[C@H](CCCNC(=N)N)NC(=O)[C@H](CC(C)C)NC(=O)[C@H](Cc1ccccc1)NC(=O)[C@H](CC(N)=O)NC(=O)[C@H](C)NC(=O)[C@H](CC(C)C)NC(=O)[C@H](CCCNC(=N)N)NC(=O)[C@H](CCC(N)=O)NC(=O)[C@@H](NC(=O)[C@H](C)NC(=O)[C@@H]1CSSC[C@H](NC(=O)[C@@H](N)CCCCNC(=O)COCCOCCNC(=O)CC[C@H](NC(=O)CCCCCCCCCCCCCCCCCCC(=O)O)C(=O)O)C(=O)N[C@@H](CC(N)=O)C(=O)N[C@@H]([C@@H](C)O)C(=O)N[C@@H](C)C(=O)N[C@@H]([C@@H](C)O)C(=O)N1)[C@@H](C)O)C(=O)N1CCC[C@H]1C(=O)N[C@@H](CO)C(=O)N[C@@H](CO)C(=O)N[C@H](C(=O)N1CCC[C@H]1C(=O)N[C@H](C(=O)NCC(=O)N[C@@H](CO)C(=O)N[C@@H](Cc1c[nH]cn1)C(=O)N[C@H](C(=O)N[C@@H](Cc1ccc(O)cc1)C(N)=O)[C@@H](C)O)C(C)C)[C@@H](C)O
notes: also called compound 57
B3: N^ε1-[2-[2-[2-[[(4S)-4-carboxy-4-(19-carboxynonadecanoylamino)butanoyl]amino]ethoxy]ethoxy]acetyl]-[Arg17,Pro21,Pro27,Pro34]-h-amylin (peptide)
peptide: K([AEEA-γGlu-C20 diacid])CNTATCATQRLANFLRHSSPNFGAIPSSTNVGPNTY-NH2
modifications: disulfide 2-7; N-terminus assumed
SMILES: CC[C@H](C)[C@H](NC(=O)[C@H](C)NC(=O)CNC(=O)[C@H](Cc1ccccc1)NC(=O)[C@H](CC(N)=O)NC(=O)[C@@H]1CCCN1C(=O)[C@H](CO)NC(=O)[C@H](CO)NC(=O)[C@H](Cc1c[nH]cn1)NC(=O)[C@H](CCCNC(=N)N)NC(=O)[C@H](CC(C)C)NC(=O)[C@H](Cc1ccccc1)NC(=O)[C@H](CC(N)=O)NC(=O)[C@H](C)NC(=O)[C@H](CC(C)C)NC(=O)[C@H](CCCNC(=N)N)NC(=O)[C@H](CCC(N)=O)NC(=O)[C@@H](NC(=O)[C@H](C)NC(=O)[C@@H]1CSSC[C@H](NC(=O)[C@@H](N)CCCCNC(=O)COCCOCCNC(=O)CC[C@H](NC(=O)CCCCCCCCCCCCCCCCCCC(=O)O)C(=O)O)C(=O)N[C@@H](CC(N)=O)C(=O)N[C@@H]([C@@H](C)O)C(=O)N[C@@H](C)C(=O)N[C@@H]([C@@H](C)O)C(=O)N1)[C@@H](C)O)C(=O)N1CCC[C@H]1C(=O)N[C@@H](CO)C(=O)N[C@@H](CO)C(=O)N[C@H](C(=O)N[C@@H](CC(N)=O)C(=O)N[C@H](C(=O)NCC(=O)N1CCC[C@H]1C(=O)N[C@@H](CC(N)=O)C(=O)N[C@H](C(=O)N[C@@H](Cc1ccc(O)cc1)C(N)=O)[C@@H](C)O)C(C)C)[C@@H](C)O
notes: also called compound 50
B4: N^ε1-[2-[2-[2-[[(4S)-4-carboxy-4-(19-carboxynonadecanoylamino)butanoyl]amino]ethoxy]ethoxy]acetyl]-[Gly14,Arg17,Pro21,Pro27,Pro31]-h-amylin (peptide)
peptide: K([AEEA-γGlu-C20 diacid])CNTATCATQRLAGFLRHSSPNFGAIPSSTPVGSNTY-NH2
modifications: disulfide 2-7; N-terminus assumed
SMILES: CC[C@H](C)[C@H](NC(=O)[C@H](C)NC(=O)CNC(=O)[C@H](Cc1ccccc1)NC(=O)[C@H](CC(N)=O)NC(=O)[C@@H]1CCCN1C(=O)[C@H](CO)NC(=O)[C@H](CO)NC(=O)[C@H](Cc1c[nH]cn1)NC(=O)[C@H](CCCNC(=N)N)NC(=O)[C@H](CC(C)C)NC(=O)[C@H](Cc1ccccc1)NC(=O)CNC(=O)[C@H](C)NC(=O)[C@H](CC(C)C)NC(=O)[C@H](CCCNC(=N)N)NC(=O)[C@H](CCC(N)=O)NC(=O)[C@@H](NC(=O)[C@H](C)NC(=O)[C@@H]1CSSC[C@H](NC(=O)[C@@H](N)CCCCNC(=O)COCCOCCNC(=O)CC[C@H](NC(=O)CCCCCCCCCCCCCCCCCCC(=O)O)C(=O)O)C(=O)N[C@@H](CC(N)=O)C(=O)N[C@@H]([C@@H](C)O)C(=O)N[C@@H](C)C(=O)N[C@@H]([C@@H](C)O)C(=O)N1)[C@@H](C)O)C(=O)N1CCC[C@H]1C(=O)N[C@@H](CO)C(=O)N[C@@H](CO)C(=O)N[C@H](C(=O)N1CCC[C@H]1C(=O)N[C@H](C(=O)NCC(=O)N[C@@H](CO)C(=O)N[C@@H](CC(N)=O)C(=O)N[C@H](C(=O)N[C@@H](Cc1ccc(O)cc1)C(N)=O)[C@@H](C)O)C(C)C)[C@@H](C)O
notes: also called compound 71
B5: N^ε1-[2-[2-[2-[[(4S)-4-carboxy-4-(19-carboxynonadecanoylamino)butanoyl]amino]ethoxy]ethoxy]acetyl]-[Arg17,Pro21,Pro27,Pro34,His35]-h-amylin (peptide)
peptide: K([AEEA-γGlu-C20 diacid])CNTATCATQRLANFLRHSSPNFGAIPSSTNVGPHTY-NH2
modifications: disulfide 2-7; N-terminus assumed
SMILES: CC[C@H](C)[C@H](NC(=O)[C@H](C)NC(=O)CNC(=O)[C@H](Cc1ccccc1)NC(=O)[C@H](CC(N)=O)NC(=O)[C@@H]1CCCN1C(=O)[C@H](CO)NC(=O)[C@H](CO)NC(=O)[C@H](Cc1c[nH]cn1)NC(=O)[C@H](CCCNC(=N)N)NC(=O)[C@H](CC(C)C)NC(=O)[C@H](Cc1ccccc1)NC(=O)[C@H](CC(N)=O)NC(=O)[C@H](C)NC(=O)[C@H](CC(C)C)NC(=O)[C@H](CCCNC(=N)N)NC(=O)[C@H](CCC(N)=O)NC(=O)[C@@H](NC(=O)[C@H](C)NC(=O)[C@@H]1CSSC[C@H](NC(=O)[C@@H](N)CCCCNC(=O)COCCOCCNC(=O)CC[C@H](NC(=O)CCCCCCCCCCCCCCCCCCC(=O)O)C(=O)O)C(=O)N[C@@H](CC(N)=O)C(=O)N[C@@H]([C@@H](C)O)C(=O)N[C@@H](C)C(=O)N[C@@H]([C@@H](C)O)C(=O)N1)[C@@H](C)O)C(=O)N1CCC[C@H]1C(=O)N[C@@H](CO)C(=O)N[C@@H](CO)C(=O)N[C@H](C(=O)N[C@@H](CC(N)=O)C(=O)N[C@H](C(=O)NCC(=O)N1CCC[C@H]1C(=O)N[C@@H](Cc1c[nH]cn1)C(=O)N[C@H](C(=O)N[C@@H](Cc1ccc(O)cc1)C(N)=O)[C@@H](C)O)C(C)C)[C@@H](C)O
notes: also called compound 58

These binders were tested against T1, human calcitonin receptor (assay: SPA competition with 125I-calcitonin, membranes of BHK hCTR cells (Assay VII)).
Protocol: Membranes were prepared in the following way; the cells were rinsed with PBS and incubated with Versene for approximately 5 min before harvesting. The cells were flushed with PBS and the cell-suspension was centrifuged for 5 min at 1000 rpm. Cells were homogenized (Ultrathurrax) in a buffer containing 20 mM Na-HEPES and 10 mM EDTA (pH 7.4) and centrifuged at 20.000 rpm for 15 min. The resulting pellet was resuspended, homogenized and centrifuged (20.000 rpm, 15 min) in a buffer containing 20 mM Na-HEPES and 0.1 mM EDTA (pH 7.4, buffer 2). The resulting pellet was resuspended in buffer 2 and protein concentration was measured (BCA protein Assay, Pierce). The homogenate was kept cold during the whole procedure. The membranes were kept at −80° C. until use. Assay was performed in a 384 well Optiplate (PerkinElmer) in a total volume of 40 ul. Membranes were mixed with SPA beads. Final concentration of membranes 35 ng/μL final and Final concentration of SPA beads was 0.05 mg/well. Test-compounds were dissolved in DMSO and further diluted in assay buffer (50 mM Hepes, pH 7.4, 1 mM CaCl2, 5 mM MgCl₂, 0.1% OA and 0.02% Tween20). […] The final mixture was incubated for 120 min with shaking at 400 rpm at 25° C. prior to centrifugation (1500 rpm, 10 min). Samples were analyzed on TopCounter™ (Packard). The […] was calculated using (one site binding competition analysis) GraphPad Prism5 as a measure of receptor affinity.
B1 was tested, and the IC50 was 2.09 nM. In the case of B2, the IC50 is reported as 15.3 nM. In the case of B3, the IC50 is reported as 1.38 nM. In the case of B4, the IC50 is reported as 1.53 nM. With B5 the IC50 was 9.63 nM.
